Where a chain is given by its changes, count along the chain named. Like-named read-outs stand apart in the source and are kept apart here. Ends that are not written are not given here.
Legend:
Experiment in all cases: cell-based or functional assay
FGFR1/KLB acceptor = FGFR1/KLB acceptor (UniProt P11362 22-822; Q86Z14 1-1044, limits assumed)
GLP-1 acceptor [1] = target: T1, GLP-1 acceptor (UniProt P43220 24-463, limits assumed)
GLP-1 acceptor [2] = target: T1, GLP-1 acceptor; remark: listed apart in the source
GCG acceptor = GCG acceptor (UniProt P47871 26-477, limits assumed)
GIP acceptor = target: T2, GIP acceptor (UniProt P48546 22-466, limits assumed)
T2 sequence (looked up): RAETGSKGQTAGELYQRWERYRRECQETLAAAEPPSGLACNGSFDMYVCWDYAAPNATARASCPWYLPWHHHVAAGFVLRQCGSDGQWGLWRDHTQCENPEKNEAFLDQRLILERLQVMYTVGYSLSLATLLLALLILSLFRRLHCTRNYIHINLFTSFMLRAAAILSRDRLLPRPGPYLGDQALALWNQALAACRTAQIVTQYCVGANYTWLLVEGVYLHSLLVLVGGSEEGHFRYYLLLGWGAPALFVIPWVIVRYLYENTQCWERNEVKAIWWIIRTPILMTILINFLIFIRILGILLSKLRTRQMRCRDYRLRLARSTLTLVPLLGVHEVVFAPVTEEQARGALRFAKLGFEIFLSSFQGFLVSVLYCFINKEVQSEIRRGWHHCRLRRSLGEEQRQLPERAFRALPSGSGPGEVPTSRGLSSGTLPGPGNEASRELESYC

FGFR1/KLB acceptor, sequence (P11362 22-822 limits assumed, chain 1 of 2): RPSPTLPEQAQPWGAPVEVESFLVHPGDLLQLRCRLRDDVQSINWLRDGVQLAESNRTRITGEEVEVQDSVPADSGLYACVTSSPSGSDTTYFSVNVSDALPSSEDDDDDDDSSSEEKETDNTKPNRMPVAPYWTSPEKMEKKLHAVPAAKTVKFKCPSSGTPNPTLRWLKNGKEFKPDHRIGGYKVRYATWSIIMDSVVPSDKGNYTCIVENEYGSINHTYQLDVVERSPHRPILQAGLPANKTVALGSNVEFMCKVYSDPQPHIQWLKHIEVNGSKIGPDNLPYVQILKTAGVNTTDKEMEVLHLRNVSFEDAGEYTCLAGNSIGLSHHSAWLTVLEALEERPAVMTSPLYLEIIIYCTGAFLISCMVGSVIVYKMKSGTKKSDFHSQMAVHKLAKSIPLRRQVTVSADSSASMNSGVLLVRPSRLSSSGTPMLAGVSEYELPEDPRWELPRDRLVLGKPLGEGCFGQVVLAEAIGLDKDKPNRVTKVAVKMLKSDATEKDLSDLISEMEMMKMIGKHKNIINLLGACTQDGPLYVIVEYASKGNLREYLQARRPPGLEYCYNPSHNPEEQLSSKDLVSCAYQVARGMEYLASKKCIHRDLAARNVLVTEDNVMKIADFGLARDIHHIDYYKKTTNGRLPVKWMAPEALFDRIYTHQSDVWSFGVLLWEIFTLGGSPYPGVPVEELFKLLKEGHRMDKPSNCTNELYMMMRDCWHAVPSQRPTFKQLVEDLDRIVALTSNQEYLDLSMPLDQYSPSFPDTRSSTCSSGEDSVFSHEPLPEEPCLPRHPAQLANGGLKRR
FGFR1/KLB acceptor, sequence (Q86Z14 whole entry, chain 2 of 2): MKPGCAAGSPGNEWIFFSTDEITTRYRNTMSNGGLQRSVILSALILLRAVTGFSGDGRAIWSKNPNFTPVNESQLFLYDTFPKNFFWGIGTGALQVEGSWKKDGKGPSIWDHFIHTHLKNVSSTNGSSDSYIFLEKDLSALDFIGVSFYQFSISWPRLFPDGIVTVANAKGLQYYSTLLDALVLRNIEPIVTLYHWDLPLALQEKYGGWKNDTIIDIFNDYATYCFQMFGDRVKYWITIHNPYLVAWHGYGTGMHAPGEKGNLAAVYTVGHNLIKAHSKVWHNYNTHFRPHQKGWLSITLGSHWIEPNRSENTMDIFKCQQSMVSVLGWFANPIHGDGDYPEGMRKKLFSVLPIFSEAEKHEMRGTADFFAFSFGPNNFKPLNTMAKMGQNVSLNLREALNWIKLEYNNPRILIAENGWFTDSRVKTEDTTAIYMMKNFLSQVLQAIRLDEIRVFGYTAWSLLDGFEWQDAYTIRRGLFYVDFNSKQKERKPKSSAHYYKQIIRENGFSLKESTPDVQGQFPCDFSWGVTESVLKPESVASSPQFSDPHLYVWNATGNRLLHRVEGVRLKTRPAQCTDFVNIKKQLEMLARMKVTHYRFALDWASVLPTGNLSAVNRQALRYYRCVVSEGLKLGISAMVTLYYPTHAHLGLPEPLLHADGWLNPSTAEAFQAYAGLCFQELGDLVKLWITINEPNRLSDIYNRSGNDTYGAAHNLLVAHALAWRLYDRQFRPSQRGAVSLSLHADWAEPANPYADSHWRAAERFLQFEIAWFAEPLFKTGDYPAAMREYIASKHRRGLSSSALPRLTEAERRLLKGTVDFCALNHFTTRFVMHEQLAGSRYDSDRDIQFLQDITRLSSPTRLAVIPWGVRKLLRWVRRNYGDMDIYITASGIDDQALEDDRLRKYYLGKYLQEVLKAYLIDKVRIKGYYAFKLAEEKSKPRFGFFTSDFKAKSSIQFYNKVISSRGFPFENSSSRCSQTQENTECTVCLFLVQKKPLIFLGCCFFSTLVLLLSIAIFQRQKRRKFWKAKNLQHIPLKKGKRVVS
GCG acceptor, sequence (P47871 26-477 limits assumed): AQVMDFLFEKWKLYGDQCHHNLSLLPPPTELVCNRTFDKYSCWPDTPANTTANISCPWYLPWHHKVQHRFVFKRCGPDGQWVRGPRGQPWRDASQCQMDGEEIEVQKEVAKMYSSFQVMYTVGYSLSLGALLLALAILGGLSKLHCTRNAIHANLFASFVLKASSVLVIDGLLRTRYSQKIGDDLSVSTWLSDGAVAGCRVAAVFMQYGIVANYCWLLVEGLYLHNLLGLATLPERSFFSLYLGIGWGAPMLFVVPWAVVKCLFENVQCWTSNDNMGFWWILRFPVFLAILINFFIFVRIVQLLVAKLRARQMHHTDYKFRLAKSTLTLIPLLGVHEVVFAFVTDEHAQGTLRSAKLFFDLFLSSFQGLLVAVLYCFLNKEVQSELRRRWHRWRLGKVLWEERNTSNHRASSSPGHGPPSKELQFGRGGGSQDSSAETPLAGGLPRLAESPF

B1: FGF#1 (ligand)
chain: HPIPDSSPLLQFGGQVRQRYLYTDDAQQTEAHLEIREDGTVGGAADQSPESLLQLKALKPGVIQILGVKTSRFLCQRPDGALYGSLHFDPEACSFREEIRPDGYNVYQSEAHGLPLHLPGNKSPHRDPAPRGPARFLPLPGLPPALPEPPGILAPQPPDVGSSDPLSMVTGLEANRSPSYES
- EC50, FGFR1/KLB functional assay; n = 2 (FGFR1/KLB acceptor): 21000 pM

B2: GLP#10 (peptide)
peptide: HGEGTFTSDVSEYLEKQAAQEFIAWLVKGR
- EC50, cAMP accumulation assay; Transient cell line, n = 2 (GLP-1 acceptor [1]): 8.26 pM

B3: GLP#1 (peptide)
peptide: HSEGTFTSDVSSYLEGQAAQEFIAWLVNGR
- EC50, cAMP accumulation assay; Transient cell line, n = 1 (GLP-1 acceptor [1]): 159 pM

B4: FGF#5 (ligand)
chain: HPIPDSSPLLQFGGQVRQVYLYTDDAQQTEAHLEIREDGTVGGAADQSPESLLQLKALKPGVIQILGVKTSRFLCQRPDGALYGSLHFDPEACSFREDLKEDGYNVYQSEAHGLPLHLPGNKSPHRDPAPRGPARFLPLPGLPPALPEPPGILAPQPPDVGSSDPLSMVEGSQGRSPSYES
- EC50, FGFR1/KLB functional assay; n = 2 (FGFR1/KLB acceptor): 22300 pM

B5: FGF#9 (ligand)
chain: B4 chain with D98R, K100L
- EC50, FGFR1/KLB functional assay; n = 2 (FGFR1/KLB acceptor): 19100 pM

B6: GLP/GCG#3 (peptide)
peptide: HGQGTFTSDYSKYLDEQAAKEFIAWLMNT
- EC50, cAMP accumulation assay; Transient cell line, n = 1 (GLP-1 acceptor [2]): 13 pM
- EC50, cAMP accumulation assay; Transient cell line, n = 1 (GCG acceptor): > 5000 pM

B7: GLP#6 (peptide)
peptide: B2 peptide with G2S, Q20K
- EC50, cAMP accumulation assay; Transient cell line, n = 2 (GLP-1 acceptor [1]): 1.5 pM

B8: GLP/GCG#15 (peptide)
peptide: HSQGTFTSDYSKYLDEQAAKEFIAWLMNT
- EC50, cAMP accumulation assay; Transient cell line, n = 1 (GLP-1 acceptor [2]): 16 pM
- EC50, cAMP accumulation assay; Transient cell line, n = 1 (GCG acceptor): 424 pM

B9: GLP#5 (peptide)
peptide: HSEGTFTSDVSSYLEEQAAKEFIAWLVKGGG
- EC50, cAMP accumulation assay; Transient cell line, n = 1 (GLP-1 acceptor [1]): 7.52 pM

B10: GLP#8 (peptide)
peptide: B9 peptide with S2G, K28R, G30R
- EC50, cAMP accumulation assay; Transient cell line, n = 2 (GLP-1 acceptor [1]): 1.95 pM

B11: GLP#9 (peptide)
peptide: B9 peptide with S2G
modifications: ends and bridges not checked
- EC50, cAMP accumulation assay; Stable cell line, n = 4 (GLP-1 acceptor [1]): 2.08 pM
- EC50, cAMP accumulation assay; Transient cell line, n = 3 (GLP-1 acceptor [1]): 0.71 pM

B12: FGF#7 (ligand)
chain: HPIPDSSPLLQFGGQVRQVYLYTDDAQQTEAHLEIREDGTVGGAADQSPESLLQLKALKPGVIQILGVKTSRFLCQRPDGALYGSLHFDPEACSFREDLKEDGYNVYQSEAHGLPLHLPGNKSPHRDPAPRGPARFLPLPGLPPALPEPPGILAPQPPDVGSSDPLRLVEPSQLRSPSFE
- EC50, FGFR1/KLB functional assay; n = 2 (FGFR1/KLB acceptor): 17700 pM

B13: GLP#7 (peptide)
peptide: HGEGTFTSDVSEYLEKQAAKEFIAWLVRGRG
- EC50, cAMP accumulation assay; Transient cell line, n = 1 (GLP-1 acceptor [1]): 23 pM

B14: GLP#3 (peptide)
peptide: B2 peptide with Q20K, K28N
- EC50, cAMP accumulation assay; Transient cell line, n = 2 (GLP-1 acceptor [1]): 2.25 pM

B15: GIP#1 (peptide)
peptide: YGEGTFISDYSIAMDKIHQQDFVNWLLAQKGKKNDWKHNITQ
- EC50, cAMP accumulation assay; Transient cell line, n = 3 (GIP acceptor): 17.5 pM

B16: GIP#2 (peptide)
peptide: B15 peptide with G2S
- EC50, cAMP accumulation assay; Stable cell line, n = 2 (GIP acceptor): 12 pM
- EC50, cAMP accumulation assay; Transient cell line, n = 3 (GIP acceptor): 6.63 pM

B17: GIP#5 (peptide)
peptide: B15 peptide with Y1F, G2S
- EC50, cAMP accumulation assay; Transient cell line, n = 1 (GIP acceptor): 81.9 pM

B18: GIP#7 (peptide)
peptide: B15 peptide with H18R
- EC50, cAMP accumulation assay; Transient cell line, n = 1 (GIP acceptor): 76.9 pM
